# Experimental data reported in paper PMC2185538, “Purification of the full-length Xenopus interphotoreceptor retinoid binding protein and growth of diffraction-quality crystals” (Molecular Vision, 2007).
# B1: recombinant full-length four-module Xenopus interphotoreceptor retinoid-binding protein (natural protein)
# chain: not shown
# notes: begins FQPSL; also called xIRBP; Xenopus IRBP; source: E. coli Top10, thioredoxin fusion cleaved with enterokinase, purified (HisTrap twice, Sephacryl S-300HR); not shown: thioredoxin with His-patch, N-terminal, cleaved
# Biological target: the molecule itself
# Assay: SEC; Sephacryl S-300HR 2.6 x 100 cm, 25 mM Tris-HCl pH 7.5 at 4 °C, 50 mM NaCl, 1 mM DTT; dimer between elution volumes 212 and 250 ml
protein,measurement,value
B1,stoichiometry N,2
